According to US6531296B1, “Nuclear tyrosine kinase Rak” (The University of North Carolina at Chapel Hill, priority 1995, dated 2003):
No end group written: not given here.

Biological target: T1, CDC2 (Homo sapiens, UniProt P06493)
T1 construct: incubated with immunoprecipitated CDC2; endogenous in cells
Assay: In vitro kinase assay of immunoprecipitated CDC2 with Histone H1 as exogenous substrate
Type: biochemical
Procedure: The 110 N-terminal amino acids of Rak were produced as a GST fusion protein (RAKNT:GST) and incubated with immunoprecipitated CDC2, and subjected to an in vitro kinase assay with Histone H1 added as an exogenous substrate, and analyzed by SDS-PAGE. […] This fusion protein was incubated with immunoprecipitated CDC2, and subjected to an in vitro kinase assay with Histone H1 added as an exogenous substrate, and analyzed by SDS-PAGE.
The CDC2 binding domain of RAK appears to be between amino acids 86-110. Since the binding of RAK to CDC2 is exceptionally strong, the biological function of this interaction was explored.

T1 sequence (P06493 whole entry): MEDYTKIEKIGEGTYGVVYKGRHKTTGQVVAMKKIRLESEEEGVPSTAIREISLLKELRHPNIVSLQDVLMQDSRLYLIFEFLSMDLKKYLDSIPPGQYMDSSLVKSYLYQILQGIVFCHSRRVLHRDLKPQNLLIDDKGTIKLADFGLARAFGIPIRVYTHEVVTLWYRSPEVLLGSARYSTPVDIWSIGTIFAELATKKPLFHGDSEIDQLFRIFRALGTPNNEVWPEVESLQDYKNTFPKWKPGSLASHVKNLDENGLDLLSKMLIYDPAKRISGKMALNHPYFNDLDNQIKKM

## KRRDGSSQQLQ [SEQ ID NO:4]
  inhibition of CDC2 histone H1 phosphorylation activity: reproducibly attenuated
